Source: PMC5700101

Target: PBD–GFP (PBD of Polo, amino acids 350–576, C-terminally fused to GFP10) (UniProt P52304)
Experiment: BRET
Details: live HEK293T cells; fixed amount of Luc-KD vector, increasing PBD–GFP vector; Map205 fragment co-transfected; p-value < 0.0001; parent: 0.197

For “Luc-KD (KD–IDL of Polo, amino acids 1–349, N-terminally fused to RLucII), KD^WT (from UniProt P52304) NLS7A”, which other: BRET50 is on record?
Its other: BRET50 is 2.49 GFP/Luc.
